The values below come from patent US8722856B2, “Anti-MUC1 antibody” (National University Corporation Hokkaido University, priority 2008, dated 2014).

By Kd is commonly meant the equilibrium constant for the complex coming apart.

The subject of experiment [1] is normal tissue around a breast cancer. As to the kind of experiment: Immunological tissue staining. Also on record: species or system human. The note with it: formalin-fixed, paraffin-embedded normal tissue around the breast cancer. The source says:
(§1) Immunological tissue staining of the 1B2 antibody to a piece of a human breast cancer tissue and a normal tissue around a breast cancer (BioCahin) which had been formalin-fixed and paraffin-embedded was implemented using the Vectastain elite ABC kit (manufactured by Vector Laboratories) and DAB (manufactured by Roche) according to the attached manual.

Experiment [2] deals with T1, Biotin-Tn(DT*R)-100 (Compound No. 21) (Homo sapiens, UniProt P15941).
T1 construct: made in house; host or cells: chemical solid-phase synthesis
T1 sequence (P15941 136-235): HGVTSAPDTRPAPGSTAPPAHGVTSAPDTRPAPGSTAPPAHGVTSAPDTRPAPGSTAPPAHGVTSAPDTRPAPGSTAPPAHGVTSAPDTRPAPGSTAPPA
As to the kind of experiment: Affinity of antibody, Biacore T100, sensor chip SA. The note with it: Biotin-Tn(DT*R)-100 solid-phased. In kind it is binding. The source says:
Biotin-Tn(DT*R)-100 (Compound No. 21) was solid-phased on a sensor chip SA (manufactured by GE Healthcare), and a dissociation constant of each of the following MUC1 antibody, 1B2, PankoMab (manufactured by GLYCOPOPE) currently at a pre-clinical stage, VU-2G7 (manufactured by MONOSAN) which is an antibody obtained by glycopeptide immunization, O.N.272 (manufactured by SantaCruz), C595 (manufactured by Acris), B416 (manufactured by GeneTex), and VU-3C6 (manufactured by Exalpha Biologicals) was analyzed using Biacore T100, and the result was as shown in the following Table 3.
For orientation: In SPR one partner is held on a chip, and binding of the other changes the refractive index at the surface.

The target of experiment [3] is T2, Biotin-2,3-ST(DT*R)-20 (Compound No. 16) (Homo sapiens, UniProt P15941).
T2 construct: Synthesis of MUC1 Tn20-mer Glycopeptide; made in house; host or cells: chemical solid-phase synthesis with enzymatic sialylation
T2 sequence (P15941 136-155): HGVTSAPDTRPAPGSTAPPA
Briefly: Hybridoma screening ELISA (selection of MUC1 antibody). The experiment is classed as binding. The note with it: hybridoma culture supernatant. The protocol:
Ten days after cell fusion, screening of a specific antibody-producing cell was performed. ELISA was used in screening is as follows. To each well of a 384-well microtiter plate (manufactured by Nunc) 35 μl of a Tris buffer (50 mM Tris-HCl, pH 7.5) containing 0.35 μg of an anti-mouse IgG antibody (manufactured by Shibayagi Co., Ltd.) was added to immobilize the antibody at 4° C. for 16 hours. After these wells were washed with 90 μl of a washing solution (physiological saline containing 0.01% Tween 20) once, 200 μl of BLOCK ACE (manufactured by Dainippon Sumitomo Pharma Co., Ltd.) was added, and this was allowed to stand at room temperature for 2 hours for blocking (an anti-mouse IgG antibody solid-phased plate). […] Then, after each well was washed with 90 μl of a washing solution three times, 25 μl of TMB+-Substrate-Chromogen (manufactured by DAKO) was added to develop a color at room temperature for 30 minutes, 25 μl of 0.05 M sulfuric acid was added to stop the reaction, and absorbance was measured at 450 nm. […] Using a mouse monoclonal antibody isotyping ELISA kit (manufactured by BD Bioscience), a subclass of the antibody was determined and, as a result, an isotype of 1B2 was IgG2a.
Background: ELISA stands for enzyme-linked immunosorbent assay.

The test system of experiment [4] is human breast cancer cell strain T-47D. As to the kind of experiment: Binding of antibody to cancer cell with FACS. The experiment is classed as cell-based. The protocol:
(§2) Whether the MUC1 protein expressed on a surface of a cancer cell membrane and the 1B2 antibody bound thereto was investigated by FACS. A human breast cancer cell strain T-47D (ATCC, HTB-133) and a human mammary gland epithelial cell 184A1 (ATCC, CRL-8798) which had been trypsinized with Trypsin (manufactured by Invitrogen) were washed once with a FACS buffer (PBS containing 5% FCS, 0.05% sodium azide), and suspended in 100 μl of a FACS buffer containing 10 μg/ml 1B2 antibody and the reaction was allowed to proceed at room temperature for 2 hours. The resultant reaction product was washed with a FACS buffer two times, and suspended in 200 μl of FITC-Goat Anti-Mouse IgG (manufactured by ZYMED), and the reaction was allowed to proceed at room temperature for 1 hour. After washing with a FACS buffer two times, analysis was performed by FACSAria (manufactured by BD). As a result, in T-47D, the 1B2 antibody greatly shifted the fluorescent signal of FACS (about 300-fold) as compared with a control mouse IgG2a antibody (manufactured by SIGMA-ALDRICH), while in 184A, fluorescent shift by 1B2 was scarcely seen (about 2-fold).

The subject of experiment [5] is biotin-labeled T-47D culture supernatant. Briefly: Affinity of antibody, Biacore, sensor chip SA. The experiment is classed as binding, human. The note with it: biotin-labeled T-47D culture supernatant solid-phased. The protocol:
In addition, a human breast cancer cultured cell strain T-47D (ATCC Number HTB-133) was cultured on a Dulbecco's modified Eagle medium (DMEM; manufacture by Invitrogen), the supernatant was concentrated with Amicon ultra-100 (manufactured by MILLIPORE), and substituted with a 20 mM HEPES buffer (pH 7.6) containing 0.15 M NaCl. Sulfo-NHS-Biotin (manufactured by PIERCE) was added to 200 μl of the T-47D culture supernatant, followed by reaction on ice for 2 hours. Thereafter, substitution with a 20 mM Tris buffer (pH 7.6) containing 0.15 M NaCl was performed with a PD-10 column (manufactured by GE Healthcare) to obtain a biotin-labeled T-47D culture supernatant.

The subject of experiment [6] is human breast cancer tissue. As to the kind of experiment: Immunological tissue staining. The note with it: formalin-fixed, paraffin-embedded breast cancer tissue.
From the text: as §1

Experiment [7] relates to human mammary gland epithelial cell 184A1. As to the kind of experiment: Binding of antibody to cell with FACS. The experiment is classed as cell-based. As for the experimental part: as §2
[8] abbreviates: read-out: dissociation constant KD.

B1: 1B2: mouse monoclonal anti-MUC1 antibody, isotype IgG2a, clone from immunization with 2,3-ST(DT*R)-20 conjugated to BSA (antibody, V domains shown)
VH: MEWIWIFLFILSGTAGVQSQVQLQQSGAELARPGASVKLSCKASGYTFTNYGLSWVKQRTGQGLEWIGENHPGSGIIYHNEKFRGKATLTADKSSSTAYVQLSSLTSEDSAVYFCARSSGTRGFAYWGQGTLVTVSA
VL: MKLPVRLLVLMFWIPASSSDVLMTQTPLSLPVSLGDQASISCRSSQSIVHSNGNTYLEWYLQKPGQSPKLLIYKVSNRFSGVPDRFSGSGSGTDFTLKISRVEAEDLGVYYCFQGSHGPWTFGGGTKLEIKRA
modifications: Antibody 1B2 VH sequence; Antibody 1B2 VL sequence
In the case of B1, the stained image entry in experiment [1] is reported as “scarcely recognized”; in experiment [6], “recognized”. Further, the results for the Kd1 in experiment [2] and in experiment [5] were 0.00015 s⁻¹ and 0.0012 s⁻¹, respectively. In addition, the ka1 in experiment [2] was 410000 M⁻¹ s⁻¹; in experiment [5] it was 470000 M⁻¹ s⁻¹. In addition, the Kd in experiment [2] (setting [8]) stood at 0.37 nM; in experiment [5] (setting [8]), 2.6 nM. Moreover, the “affinity for 2,3-ST(DT*R)-20 in screening” value in experiment [3] is recorded as “strong affinity”. For the same molecule, in experiment [4], the “reaction with breast cancer cell (FACS)” value is given as “strongly reacts”. Further, the “shift of fluorescent signal of FACS as compared with control mouse IgG2a antibody” value in experiment [4] (10 μg/ml antibody) was “about 300 fold”; in experiment [7] (184A1, 10 μg/ml antibody) it was “about 2 fold”. The “reaction with mammary gland epithelial cell (FACS)” value in experiment [7] (184A1) was “hardly reacts”.
